Assay results reported in article PMC2199927.

Biological target: c-myc-tagged Sec8 (S. cerevisiae) (UniProt P32855)
Assay: co-IP

B1: Sec4 (natural protein)
chain: MSGLRTVSASSGNGKSYDSIMKILLIGDSGVGKSCLLVRFVEDKFNPSFITTIGIDFKIKTVDINGKKVKLQLWDTAGQERFRTITTAYYRGAMGIILVYDVTDERTFTNIKQWFKTVNEHANDEAQLLLVGNKSDMETRVVTADQGEALAKELGIPFIESSAKNDDNVNEIFFTLAKLIQEKIDSNKLVGVGNGKEGNISINSGSGNSSKSNCC
percent of the total Sec4 associated (limit of detection): < 0.07%
